Measurements as given in publication PMC8056888 (Journal of Applied Glycoscience, 2017).

Columns and labels:
[1] = test system: Foagl1; conditions: conditions not stated for this substrate
[2] = substrate: CO[C@H]1O[C@H](CO)[C@@H](O)[C@H](O)[C@H]1O; assay: purified protein; conditions: conditions not stated for this substrate
[3] = substrate: O=[N+]([O-])c1ccc(O[C@H]2O[C@H](CO)[C@@H](O)[C@H](O)[C@H]2O)cc1; assay: purified protein; conditions: pH 6.0, sodium phosphate, 30 °C

Row | Km [1] | Molecule | Km [2] | kcat [2] | Km [3] | kcat [3] | kcat/Km [3]
1 | 24.3 mM | CO[C@H]1O[C@H](CO)[C@@H](O)[C@H](O)[C@H]1O [α-MG] | – | – | – | – | –
2 | – | AgdC (Aspergillus niger CBS 513.88) (protein) MAKSASQIHRAWWKECSVYQIWPASYKDSNDDGIGDIPGIISKLDYIKNIGVDIVWLCPSYKSPQVDMGYDIADYYSIADEYGTVADVEKLIQGCHERGMKLLMDLVVNHTSDQNEWFKQSRSSKDNKYRNWYVWKPARYDEQGNRHPPNNWVSHFQGSAWEWDEHTGEYYLHLYATEQPDLNWEHPPVRKAVHDIMRFWLDKGADGFRMDVINFISKDQRFPDAPVKDPRTPWQWGDKYYANGPRLHEYLQDLGKILKEYDAFSVGEMPFVRDTEEVLRAVRYDRNEINMIFNFEHVDIDHGTYDKFEPGSWKLTDLKAFFETWQKFMYNNDGWNALYWENHDQPRSIDRYAQAKEEFRTEAGKMLATVLALQSGTPFVYQGQEIGMRNVPVEWDMNEYKDIDCLNHWHRLLKHRPDDIEAQKSARQEYQKKSRDNGRTPVQWSSAPNGGFTGPNAKPWMSVSPDYVRFNAEAQVNDPNSIYHYWAAVLGLRKKYLDIFVYGDYDLVDKDSQEIFAYARQYENKKALVLTNWTEKTLEWDATTNGVKGVKDVLLNSYESAEAAKGRFSGQKWSLRPYEAVVLLVEA | 32.8 mM | 5.0 s⁻¹ | 7.8 mM | 19.8 s⁻¹ | –
3 | – | Agl1 (Aspergillus oryzae RIB40) (protein) MATPGNQNHRAWWKESSVYQIWPCSFKDSNDDGIGDIPGIISKLDHIKNLGIDIVWLCPSYKSPQVDMGYDIADYYDIAPEYGTVADVEKLIKGCHERGMKLLMDLVVNHTSDQHEWFKQSRSSKDNEYRNWYIWKPARYDEQGNRQPPNNWVSHFQGSAWEWDEHTQEYYLHLYATEQPDLNWEHPPVRKAVHDIMRFWLDKGANGFRMDVINFISKDQRFPDAPIKDPRTPWQWGDKYYANGPRLHEYFQELGKILKEYDTFSVGEMPFVTDTEEVLRAVKYDRNELNMIFNFEHVDIDHGKYDKFEPGSWELTDLKFFFERWQKFMYENDGWNALYWENHDQPRSVDRYTNAKEEDRVIASKMLATILALKAGSPFVYQGQEIGMGNVPPEWDIEEYKDIDCLNHWKRLPNDPEIQKIARQEYQKKSRDNGRTPVQWTNAPNAGFTSPNVKPWMSVNPNYARGINAEAQVNDPNSTYSYWASVLGLRKKYVDIFVYGNYELVDRDSQEIFAYTRQYEDQKALVLANWTDGTLEWDSSSNGVKAVKDVLLNTYDSASDVKERFSGSKWSLRPYEAVVLLIEA | 31.3 mM | – | 8.3 mM | 17.5 s⁻¹ | 2120 M⁻¹ s⁻¹
